The results in this text go back to patent US20100077498A1 (published 2010).

The target of assay [1] is T1, mouse transferrin receptor (mouse, UniProt Q62351 1-763).
T1 construct: whole, on cells; Mouse fibroblasts were the source of the mouse TfR in the radio-receptor assay; also called mouse TfR; TfR
Put plainly: radio-receptor assay on mouse fibroblasts, 4 C, displacement of [125I]-8D3 by unlabeled cTfRMAb, non-linear regression. The procedure: (§1) Mouse TfR radio-receptor assay. Mouse fibroblasts were plated in 24-well cluster dishes (100,000 cells/well) 24 hours before the radio-receptor assay (RRA) of TfRMAb binding to the mouse TfR. The medium was aspirated, the cells washed with phosphate buffered saline (PBS), and 500 μL was added to each well containing 0.15 μCi/mL of [¹²⁵I]-labeled rat 8D3 MAb, and 0.3 to 100 nM concentrations of either unlabeled rat 8D3 MAb or unlabeled cTfRMAb. Following incubation at 4 C for 120 min, the medium was aspirated, the plates washed with cold PBS containing 1% bovine serum albumin (BSA), and the monolayer was lysed with 0.2 mL/well of 1 N NaOH. An aliquot was removed for protein measurement using the bicinchoninic acid (BCA) assay, and the radioactivity in the lysate was determined with a Beckmann gamma counter. The % bound/mg protein was computed from the radioactivity in the cell lysate and the total radioactivity in the medium. The 8D3 self-inhibition binding data were fit by non-linear regression analysis yield either the KD of 8D3 self-inhibition in the binding assay, or the KI of cross-inhibition by the chimeric TfRMAb or the cTfRMAb fusion protein.

In assay [2] the target is T1, mouse transferrin receptor. Put plainly: radio-receptor assay on mouse fibroblasts, self-inhibition of [125I]-8D3, non-linear regression. How it is done:
as §1
(§2) Mouse fibroblasts were used as the source of the mouse TfR, and the ¹²⁵I-labeled rat 8D3 TfRMAb was used as the binding ligand. […]

Assay [3] has as its target T1, mouse transferrin receptor. Put plainly: radio-receptor assay on mouse fibroblasts, 4 C, self-inhibition of [125I]-8D3 by unlabeled 8D3, non-linear regression. How it is done: as §1
Assay [4] concerns the target T2, fusion protein of human Fc and the human GFRalpha1 extracellular domain (human, UniProt P56159 25-429, limits assumed).
T2 construct: extracellular domain; Captured on ELISA wells by a mouse anti-human Fc antibody; The order of the parts follows the printed name GFRα1:Fc; also called GFRα1:Fc fusion protein; GFRα1 ECD; not shown: human Fc
T2 sequence (looked up): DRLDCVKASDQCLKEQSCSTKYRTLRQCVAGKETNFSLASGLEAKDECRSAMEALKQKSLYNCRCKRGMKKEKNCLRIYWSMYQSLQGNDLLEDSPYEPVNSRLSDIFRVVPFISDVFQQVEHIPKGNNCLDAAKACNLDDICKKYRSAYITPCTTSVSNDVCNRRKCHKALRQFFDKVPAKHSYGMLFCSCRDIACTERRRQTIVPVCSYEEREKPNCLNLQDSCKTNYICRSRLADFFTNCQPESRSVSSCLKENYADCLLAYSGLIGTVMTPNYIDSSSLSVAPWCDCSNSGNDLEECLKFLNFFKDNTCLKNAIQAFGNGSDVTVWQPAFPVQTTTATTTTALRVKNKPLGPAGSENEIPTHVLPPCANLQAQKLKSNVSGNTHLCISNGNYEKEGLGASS
The experiment in a line: ELISA: GFRα1:Fc captured by mouse anti-human Fc, detection with goat anti-GDNF and rabbit anti-goat-AP; given as ED50. The text has this: FIG. 10. (A) Outline of GFRα1 receptor binding assay. The GFRα1:Fc fusion protein is captured by a mouse anti-human (MAH) Fc antibody. The GDNF, or cTfRMAb-GDNF fusion protein, binds to the GFRα1, and this binding is detected with a goat anti-GDNF antibody and a rabbit anti-goat (RAG) antibody conjugated to alkaline phosphatase (AP). (B) Binding of either GDNF (top panel) or the cTfRMAb-GDNF fusion protein (bottom panel) to the GFRα1 extracellular domain (ECD) is saturable.
The cTfRMAb-GDNF fusion protein is a bi-functional molecule that binds 2 receptors (FIG. 8): (i) the brain capillary endothelial mouse TfR to cause RMT across the mouse BBB in vivo, and (ii) the GFRα1 on neurons, to cause therapeutic actions in brain behind the BBB. The bi-functionality of the cTfRMAb-GDNF fusion protein was tested with binding assays for both the human GFRα1 and the mouse TfR. A mouse anti-human Fc (MAH-Fc) is plated in ELISA wells and captures a fusion protein of human Fc and the human GFRα1 extracellular domain (ECD). The cTfRMAb-GDNF fusion protein, or mature human GDNF, is then added, and these molecules bind to the GFRα1 ECD in proportion to the affinity for this receptor. The binding of the GDNF or the cTfRMAb-GDNF fusion protein is then detected with a goat anti-GDNF antibody, and a rabbit anti-goat (RAG) IgG-alkaline phosphatase (AP) conjugate (FIG. 10A).

The target of assay [5] is T1, mouse transferrin receptor. Put plainly: radio-receptor assay on mouse fibroblasts, displacement of [125I]-8D3 by unlabeled cTfRMAb-GDNF, non-linear regression. How it is done:
as §1, §2

Where “and” joins values, the source holds several entries; their conditions need not be identical. Equal entries are not always repeated.

T1 sequence (Q62351 whole entry): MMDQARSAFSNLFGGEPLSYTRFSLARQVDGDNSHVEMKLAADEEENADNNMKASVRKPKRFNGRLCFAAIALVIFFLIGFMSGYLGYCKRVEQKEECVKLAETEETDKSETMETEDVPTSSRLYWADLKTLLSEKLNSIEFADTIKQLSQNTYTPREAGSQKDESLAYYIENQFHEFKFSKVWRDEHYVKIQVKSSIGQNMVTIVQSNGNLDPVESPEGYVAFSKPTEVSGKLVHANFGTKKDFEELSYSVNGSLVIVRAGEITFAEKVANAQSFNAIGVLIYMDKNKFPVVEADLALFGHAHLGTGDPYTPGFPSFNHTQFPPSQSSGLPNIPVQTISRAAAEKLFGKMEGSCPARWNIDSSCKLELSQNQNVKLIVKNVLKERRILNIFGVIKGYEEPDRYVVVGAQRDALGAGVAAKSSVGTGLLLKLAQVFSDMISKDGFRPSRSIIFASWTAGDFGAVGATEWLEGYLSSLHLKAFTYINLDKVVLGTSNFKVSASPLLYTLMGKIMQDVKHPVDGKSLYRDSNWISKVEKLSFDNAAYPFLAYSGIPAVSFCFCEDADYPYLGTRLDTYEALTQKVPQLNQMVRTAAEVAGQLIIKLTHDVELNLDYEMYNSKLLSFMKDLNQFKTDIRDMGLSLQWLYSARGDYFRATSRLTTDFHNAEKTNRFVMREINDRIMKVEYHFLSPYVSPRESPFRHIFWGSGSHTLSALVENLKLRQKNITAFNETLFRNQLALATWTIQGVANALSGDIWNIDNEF

B1: chimeric monoclonal antibody against the mouse transferrin receptor (rat 8D3 variable regions, mouse IgG1/kappa constant regions) (antibody, V domains shown)
VH: EVQLVESGGGLVQPGNSLTLSCVASGFTFSNYGMHWIRQAPKKGLEWIAMIYYDSSKMNYADTVKGRFTISRDNSKNTLYLEMNSLRSEDTAMYYCAVPTSHYVVDVWGQGVSVTVSS
VL: DIQMTQSPASLSASLEEIVTITCQASQDIGNWLAWYQQKPGKSPQLLIYGATSLADGVPSRFSGSRSGTQFSLKISRVQVEDIGIYYCLQAYNTPWTFGGGTKLELKR
notes: also called chimeric TfRMAb; cTfRMAb
In turn, B1 registered an inhibition constant Ki in assay [1] of 2.6 nM.

B2: rat 8D3 monoclonal antibody against the mouse transferrin receptor, hybridoma generated (antibody, V domains shown)
VH: B1 VH
VL: DIQMTQSPASLSASLEEIVTITCQASQDIGNWLAWYQQKPGKSPQLLIYGATSLADGVPSRFSGSRSGTQFSLKISRVQVEDIGIYYCLQAYNTPWTFGGGTKLELK
modifications: In part of the assays the antibody carried 125I (radio-iodinated tyrosines); the letters do not show this.
notes: Rat hybridoma antibody purified on protein G; also called 8D3 MAb; 8D3 TfRMAb
Regarding B2, the Kd was 5 nM and 3.2 nM in assay [2]; 2.3 nM in assay [3].

B3: human mature 134 amino acid glial derived neurotrophic factor (ligand, UniProt P39905 78-211, looked up)
chain: SPDKQMAVLPRRERNRQAAAANPENSRGKGRRGQRGKNRGCVLTAIHLNVTDLGLGYETKEELIFRYCSGSCDAAETTYDKILKNLSRNRRLVSDKVGQACCRPIAFDDDLSFLDDNLVYHILRKHSAKRCGCI
notes: mature; also called GDNF; mature human GDNF
Regarding B3, in assay [4], the EC50 was 1.03 nM.

B4: cTfRMAb-GDNF fusion protein (human mature GDNF fused to the carboxyl terminus of the heavy chain of the chimeric MAb against the mouse TfR) (other)
heavy: EVQLVESGGGLVQPGNSLTLSCVASGFTFSNYGMHWIRQAPKKGLEWIAMIYYDSSKMNYADTVKGRFTISRDNSKNTLYLEMNSLRSEDTAMYYCAVPTSHYVVDVWGQGVSVTVSSAKTTPPSVYPLAPGSAAQTNSMVTLGCLVKGYFPEPVTVTWNSGSLSSGVHTFPAVLQSDLYTLSSSVTVPSSTWPSETVTCNVAHPASSTKVDKKIVPRDCGCKPCICTVPEVSSVFIFPPKPKDVLTITLTPKVTCVVVDISKDDPEVQFSWFVDDVEVHTAQTQPREEQFNSTFRSVSELPIMHQDWLNGKEFKCRVNSAAFPAPIEKTISKTKGRPKAPQVYTIPPPKEQMAKDKVSLTCMITDFFPEDITVEWQWNGQPAENYKNTQPIMDTDGSYFVYSKLNVQKSNWEAGNTFTCSVLHEGLHNHHTEKSLSHSPGSSSSPDKQMAVLPRRERNRQAAAANPENSRGKGRRGQRGKNRGCVLTAIHLNVTDLGLGYETKEELIFRYCSGSCDAAETTYDKILKNLSRNRRLVSDKVGQACCRPIAFDDDLSFLDDNLVYHILRKHSAKRCGCI
light: DIQMTQSPASLSASLEEIVTITCQASQDIGNWLAWYQQKPGKSPQLLIYGATSLADGVPSRFSGSRSGTQFSLKISRVQVEDIGIYYCLQAYNTPWTFGGGTKLELKRADAAPTVSIFPPSSEQLTSGGASVVCFLNNFYPKDINVKWKIDGSERQNGVLNSWTDQDSKDSTYSMSSTLTLTKDEYERHNSYTCEATHKTSTSPIVKSFNRGEC
notes: Hetero-tetramer of 2 light chains and 2 fusion heavy chains; expressed in COS cells, purified on protein G; also called cTrFMAb-GDNF
In the case of B4, the Ki in assay [5] was found to be 3 nM. Moreover, a half-maximal response in assay [4] (EC50) required 2.55 nM.
